The target of assay [1] is T1, monovalent human TrkA extracellular region (human, UniProt P04629 33-423).
T1 construct: also called recombinant monovalent human TrkA extracellular domain
As to the kind of experiment: SPR (BIAcore 2000), antibody captured via Fc, monovalent TrkA extracellular region as analyte. How it is done:
(§1) SPR analysis was used to measure the association and dissociation rate constants for the binding kinetics of the different antibodies (mouse and humanized antibodies). The binding kinetics of the mouse antibody and humanized variants were measured on a BIACORE 2000 instrument (GE Healthcare Europe GmbH, Glattbrugg, Switzerland) at room temperature, and analyzed with the BiaEvaluation software (v4.1, GE Healthcare Europe GmbH, Glattbrugg, Switzerland).
(§2) Antibodies were immobilized via capture of their Fc portion to allow for correct orientation on the sensor chip surface. A monoclonal mouse anti-human IgG (Fc) antibody sensor chip was used to capture all humanized antibodies regardless of their isotypes (Human Antibody Capture Kit, catalogue number BR-1008-39, GE Healthcare Europe GmbH), and a polyclonal rabbit anti-mouse immunoglobulin sensor chip was used to capture the MNAC13 mouse antibody (Mouse Antibody Capture Kit, catalogue number BR-1008-38, GE Healthcare Europe GmbH).
(§3) Data (sensorgram: fc2-fc1) were fitted with a 1:1 Langmuir model with mass transfer in spite of having little mass transfer limitation in mass transfer tests. To account for the experimental variations in captured antibody at the beginning of each measurement, the Rmax value was set to local in all fits. Dissociation times were of at least 350 seconds. Measurements were performed in triplicate, and included zero-concentration samples for referencing. Both Chi2 and residual values were used to evaluate the quality of a fit between the experimental data and individual binding models.
In general terms: SPR reads the build-up and loss of mass on a sensor chip optically.

The target of assay [2] is T1, monovalent human TrkA extracellular …. The assay is described as follows: SPR, against BXhVH5VL1. As for the experimental part: as §1, §2, §3
Assay [3] shares this target. As to the kind of experiment: SPR (BIAcore 2000), antibody captured via Fc, monovalent TrkA extracellular region as analyte. How it is done:
as §1, §2, §3
This is another data set of the same source.

Assay [4] shares this target. The assay is described as follows: SPR (BIAcore 2000), antibody captured via anti-mouse immunoglobulin, monovalent TrkA extracellular region as analyte. How it is done: as §1, §2, §3

T1 sequence (P04629 33-423): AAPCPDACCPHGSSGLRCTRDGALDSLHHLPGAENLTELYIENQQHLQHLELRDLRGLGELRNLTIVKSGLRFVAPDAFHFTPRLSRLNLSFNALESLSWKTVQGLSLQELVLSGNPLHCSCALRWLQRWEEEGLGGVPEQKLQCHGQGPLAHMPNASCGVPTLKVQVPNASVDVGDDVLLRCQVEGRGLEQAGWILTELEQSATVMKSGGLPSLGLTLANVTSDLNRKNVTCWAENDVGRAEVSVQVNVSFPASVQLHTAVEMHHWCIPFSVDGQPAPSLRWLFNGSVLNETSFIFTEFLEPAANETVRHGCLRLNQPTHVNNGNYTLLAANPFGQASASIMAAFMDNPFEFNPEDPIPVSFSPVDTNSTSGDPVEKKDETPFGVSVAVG

B1: BXhVH1VL1 (antibody, human IgG1, kappa, V domains shown)
VH: EVQLLESGGGLVQPGGSLRLSCAASGFTFSTYTMSWVRQAPGKGLEWVSYISKGGGSTYYPDTVKGRFTISRDNSKNTLYLQMNSLRAEDTAVYYCAKGAMYGNDFFYPMDYWGQGTTVTVSS
VL: EIVLTQSPATLSLSPGERATLSCSASSSVSYMHWYQQKPGQAPRLLIYTTSNLASGIPARFSGSGSGTDFTLTISSLEPEDFAVYYCHQWSSYPWTFGQGTKLEIKR
notes: IGHG1, kappa
Consider B1, for which, in assay [1], binding was characterised by a dissociation constant (Kd) of 0.426 µM, the koff (usually a measure of how fast the partners let go of each other) was 0.0133 s⁻¹ and the kon (usually a measure of how fast the partners come together) worked out at 31300 M⁻¹ s⁻¹.

B2: GBR VH5(K3Q,V37A)VL1 (antibody, human IgG1, kappa)
heavy: not shown
light: EIVLTQSPATLSLSPGERATLSCSASSSVSYMHWYQQKPGQAPRLLIYTTSNLASGIPARFSGSGSGTDFTLTISSLEPEDFAVYYCHQWSSYPWTFGQGTKLEIKRTVAAPSVFIFPPSDEQLKSGTASVVCLLNNFYPREAKVQWKVDNALQSGNSQESVTEQDSKDSTYSLSSTLTLSKADYEKHKVYACEVTHQGLSSPVTKSFNRGEC
notes: IGHG1, kappa
On to B2, for which the “fold decrease of KD against BXhVH5VL1” value in assay [2] is 2.7 fold. Also, in assay [1], the Kd (commonly the constant that tells how readily two partners part at equilibrium) was determined as 0.0154 µM, the koff is 0.00262 s⁻¹ and the kon is 170000 M⁻¹ s⁻¹. The Kd in assay [3] came out at 0.0154 µM.

B3: GBR VH5(K3Q, V37A, T40A, P60A, T62S)VL1 (antibody, human IgG1, kappa, V domains shown)
VH: EVQLLESGGGLVQPGGSLRLSCAASGFTFSTYTMSWARQAPGKRLEWVAYISKGGGSTYYADSVKGRFTISRDNSKNTLYLQMNSLRAEDTAVYYCARGAMYGNDFFYPMDYWGQGTTVTVSS
VL: EIVLTQSPATLSLSPGERATLSCSASSSVSYMHWYQQKPGQAPRLLIYTTSNLASGIPARFSGSGSGTDFTLTISSLEPEDFAVYYCHQWSSYPWTFGQGTKLEIKR
notes: IGHG1, kappa
Turning to B3, the Kd in assay [3] amounted to 0.048 µM.

B4: GBR VH5(K3Q, V37A, R44G)VL1 (antibody, human IgG1, kappa, V domains shown)
VH: EVQLLESGGGLVQPGGSLRLSCAASGFTFSTYTMSWARQTPGKGLEWVAYISKGGGSTYYPDTVKGRFTISRDNSKNTLYLQMNSLRAEDTAVYYCARGAMYGNDFFYPMDYWGQGTTVTVSS
VL: EIVLTQSPATLSLSPGERATLSCSASSSVSYMHWYQQKPGQAPRLLIYTTSNLASGIPARFSGSGSGTDFTLTISSLEPEDFAVYYCHQWSSYPWTFGQGTKLEIKR
notes: IGHG1, kappa
In turn, B4 came in with a Kd in assay [3] of 0.02 µM.

B5: BXhVH3VL3 (antibody, human IgG1, kappa, V domains shown)
VH: EVQLLESGGGLVQPGGSLRLSCAASGFTFSTYTMSWVRQTPGKRLEWVAYISKGGGSTYYPDTVKGRFTISRDNSKNTLYLQMNSLRAEDTAVYYCAKGAMYGNDFFYPMDYWGQGTTVTVSS
VL: QIVLTQSPATLSLSPGERATLSCSASSSVSYMHWYQQKPGQSPRLLIYTTSNLASGIPSRFSGSGSGTFYTLTISSLEPEDFAVYYCHQWSSYPWTFGGGTKLEIKR
notes: IGHG1, kappa
In assay [1], B5 registered a Kd of 0.134 µM, a koff of 0.00459 s⁻¹ and a kon of 31400 M⁻¹ s⁻¹.

B6: GBR VH5(R94K)VL1 (antibody, human IgG1, kappa)
heavy: not shown
light: EIVLTQSPATLSLSPGERATLSCSASSSVSYMHWYQQKPGQAPRLLIYTTSNLASGIPARFSGSGSGTDFTLTISSLEPEDFAVYYCHQWSSYPWTFGQGTKLEIKRTVAAPSVFIFPPSDEQLKSGTASVVCLLNNFYPREAKVQWKVDNALQSGNSQESVTEQDSKDSTYSLSSTLTLSKADYEKHKVYACEVTHQGLSSPVTKSFNRGEC
notes: IGHG1, kappa
As for B6, in assay [3], the Kd was 0.052 µM.

B7: BXhVH3VL1 (antibody, human IgG1, kappa)
heavy: not shown
light: EIVLTQSPATLSLSPGERATLSCSASSSVSYMHWYQQKPGQAPRLLIYTTSNLASGIPARFSGSGSGTDFTLTISSLEPEDFAVYYCHQWSSYPWTFGQGTKLEIKRTVAAPSVFIFPPSDEQLKSGTASVVCLLNNFYPREAKVQWKVDNALQSGNSQESVTEQDSKDSTYSLSSTLTLSKADYEKHKVYACEVTHQGLSSPVTKSFNRGEC
notes: IGHG1, kappa
In assay [1], B7 yielded a Kd of 0.133 µM, a koff of 0.00619 s⁻¹ and a kon of 46500 M⁻¹ s⁻¹.

B8: GBR VH3(V37A)VL3 (antibody, human IgG1, kappa, V domains shown)
VH: EVQLLESGGGLVQPGGSLRLSCAASGFTFSTYTMSWARQTPGKRLEWVAYISKGGGSTYYPDTVKGRFTISRDNSKNTLYLQMNSLRAEDTAVYYCAKGAMYGNDFFYPMDYWGQGTTVTVSS
VL: QIVLTQSPATLSLSPGERATLSCSASSSVSYMHWYQQKPGQSPRLLIYTTSNLASGIPSRFSGSGSGTFYTLTISSLEPEDFAVYYCHQWSSYPWTFGGGTKLEIKR
notes: IGHG1, kappa
In assay [1], B8 had a Kd of 0.095 µM, a koff of 0.00295 s⁻¹ and a kon of 31000 M⁻¹ s⁻¹.

B9: GBR VH3(V37A)VL1 (antibody, human IgG1, kappa, V domains shown)
VH: EVQLLESGGGLVQPGGSLRLSCAASGFTFSTYTMSWARQTPGKRLEWVAYISKGGGSTYYPDTVKGRFTISRDNSKNTLYLQMNSLRAEDTAVYYCAKGAMYGNDFFYPMDYWGQGTTVTVSS
VL: EIVLTQSPATLSLSPGERATLSCSASSSVSYMHWYQQKPGQAPRLLIYTTSNLASGIPARFSGSGSGTDFTLTISSLEPEDFAVYYCHQWSSYPWTFGQGTKLEIKR
notes: IGHG1, kappa
For the molecule B9, in assay [1], the Kd stood at 0.123 µM, the koff was found to be 0.00471 s⁻¹ and the kon came to 38200 M⁻¹ s⁻¹.

B10: GBR VH5(V37A)VL3 (antibody, human IgG1, kappa, V domains shown)
VH: EVKLLESGGGLVQPGGSLRLSCAASGFTFSTYTMSWARQTPGKRLEWVAYISKGGGSTYYPDTVKGRFTISRDNSKNTLYLQMNSLRAEDTAVYYCARGAMYGNDFFYPMDYWGQGTTVTVSS
VL: QIVLTQSPATLSLSPGERATLSCSASSSVSYMHWYQQKPGQSPRLLIYTTSNLASGIPSRFSGSGSGTFYTLTISSLEPEDFAVYYCHQWSSYPWTFGGGTKLEIKR
notes: IGHG1, kappa
In assay [1], B10 came in with a Kd of 0.028 µM, a koff of 0.00205 s⁻¹ and a kon of 74500 M⁻¹ s⁻¹.

B11: GBR VH1(V37A)VL1 (antibody, human IgG1, kappa, V domains shown)
VH: EVQLLESGGGLVQPGGSLRLSCAASGFTFSTYTMSWARQAPGKGLEWVSYISKGGGSTYYPDTVKGRFTISRDNSKNTLYLQMNSLRAEDTAVYYCAKGAMYGNDFFYPMDYWGQGTTVTVSS
VL: EIVLTQSPATLSLSPGERATLSCSASSSVSYMHWYQQKPGQAPRLLIYTTSNLASGIPARFSGSGSGTDFTLTISSLEPEDFAVYYCHQWSSYPWTFGQGTKLEIKR
notes: IGHG1, kappa
With B11, in assay [1], the Kd amounted to 0.338 µM, the koff is 0.00663 s⁻¹ and the kon was found to be 19600 M⁻¹ s⁻¹.

B12: GBR VH5(V37A)VL1 (antibody, human IgG1, kappa)
heavy: not shown
light: EIVLTQSPATLSLSPGERATLSCSASSSVSYMHWYQQKPGQAPRLLIYTTSNLASGIPARFSGSGSGTDFTLTISSLEPEDFAVYYCHQWSSYPWTFGQGTKLEIKRTVAAPSVFIFPPSDEQLKSGTASVVCLLNNFYPREAKVQWKVDNALQSGNSQESVTEQDSKDSTYSLSSTLTLSKADYEKHKVYACEVTHQGLSSPVTKSFNRGEC
notes: IGHG1, kappa; also called GBR VH5(V37A)VL1 IGHG1 antibody; GBR VH5 (V37A)VL1 antibody
As to B12, in assay [2], the “fold decrease of KD against BXhVH5VL1” value is 2.5 fold and the “fold increase in affinity against BXhVH5VL1” value turned out to be 2.5 fold. Besides, in assay [1], the Kd was found to be 0.016 µM, the koff amounted to 0.00225 s⁻¹ and the kon came out at 140000 M⁻¹ s⁻¹. Moreover, in assay [3], binding was characterised by a dissociation constant (Kd) of 0.016 µM.

B13: BXhVH5VL3 (antibody, human IgG1, kappa, V domains shown)
VH: EVKLLESGGGLVQPGGSLRLSCAASGFTFSTYTMSWVRQTPGKRLEWVAYISKGGGSTYYPDTVKGRFTISRDNSKNTLYLQMNSLRAEDTAVYYCARGAMYGNDFFYPMDYWGQGTTVTVSS
VL: QIVLTQSPATLSLSPGERATLSCSASSSVSYMHWYQQKPGQSPRLLIYTTSNLASGIPSRFSGSGSGTFYTLTISSLEPEDFAVYYCHQWSSYPWTFGGGTKLEIKR
In assay [1], B13 registered a Kd of 0.063 µM, a koff of 0.00395 s⁻¹ and a kon of 62300 M⁻¹ s⁻¹.

B14: GBR VH5(V37A)VL1 IGHG4 S228P (antibody, human IgG4 S228P, kappa)
heavy: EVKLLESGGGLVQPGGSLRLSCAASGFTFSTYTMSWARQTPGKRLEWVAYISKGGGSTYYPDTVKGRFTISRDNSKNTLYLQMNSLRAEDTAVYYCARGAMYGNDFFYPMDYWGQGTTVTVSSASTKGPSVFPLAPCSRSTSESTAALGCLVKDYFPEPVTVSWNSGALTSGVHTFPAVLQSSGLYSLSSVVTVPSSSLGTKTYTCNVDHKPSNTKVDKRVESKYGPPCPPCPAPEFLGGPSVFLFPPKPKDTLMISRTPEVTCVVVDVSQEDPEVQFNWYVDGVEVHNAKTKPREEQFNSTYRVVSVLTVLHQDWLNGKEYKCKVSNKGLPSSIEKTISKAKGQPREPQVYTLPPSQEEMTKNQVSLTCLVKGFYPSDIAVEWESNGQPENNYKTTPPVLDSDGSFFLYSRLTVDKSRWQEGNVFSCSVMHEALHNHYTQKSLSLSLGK
light: EIVLTQSPATLSLSPGERATLSCSASSSVSYMHWYQQKPGQAPRLLIYTTSNLASGIPARFSGSGSGTDFTLTISSLEPEDFAVYYCHQWSSYPWTFGQGTKLEIKRTVAAPSVFIFPPSDEQLKSGTASVVCLLNNFYPREAKVQWKVDNALQSGNSQESVTEQDSKDSTYSLSSTLTLSKADYEKHKVYACEVTHQGLSSPVTKSFNRGEC
notes: IGHG4 isotype with S228P (EU) hinge substitution, kappa
With B14, in assay [3], the affinity, expressed as Kd, was 0.015 µM.

B15: GBR VH5(K3Q,V37A)VL1 IGHG4 S228P (antibody, human IgG4 S228P, kappa)
heavy: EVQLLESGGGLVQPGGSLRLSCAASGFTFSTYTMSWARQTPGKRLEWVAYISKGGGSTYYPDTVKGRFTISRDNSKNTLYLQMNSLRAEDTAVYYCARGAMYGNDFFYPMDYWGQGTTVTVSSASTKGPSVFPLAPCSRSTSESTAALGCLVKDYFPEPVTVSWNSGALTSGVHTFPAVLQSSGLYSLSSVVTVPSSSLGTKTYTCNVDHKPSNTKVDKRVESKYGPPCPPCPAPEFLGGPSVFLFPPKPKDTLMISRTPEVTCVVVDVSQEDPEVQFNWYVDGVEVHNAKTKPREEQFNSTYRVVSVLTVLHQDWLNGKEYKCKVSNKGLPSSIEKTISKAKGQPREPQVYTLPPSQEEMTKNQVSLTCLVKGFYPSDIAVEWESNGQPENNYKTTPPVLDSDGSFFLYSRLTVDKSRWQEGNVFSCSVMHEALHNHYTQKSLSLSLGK
light: EIVLTQSPATLSLSPGERATLSCSASSSVSYMHWYQQKPGQAPRLLIYTTSNLASGIPARFSGSGSGTDFTLTISSLEPEDFAVYYCHQWSSYPWTFGQGTKLEIKRTVAAPSVFIFPPSDEQLKSGTASVVCLLNNFYPREAKVQWKVDNALQSGNSQESVTEQDSKDSTYSLSSTLTLSKADYEKHKVYACEVTHQGLSSPVTKSFNRGEC
notes: as for B14
For the molecule B15, the Kd in assay [3] was 0.015 µM.

B16: MNAC13 mouse antibody (antibody, mouse IgG1, kappa, V domains shown)
VH: EVKLVESGGGLVQPGGSLKLSCAASGFTFSTYTMSWARQTPEKRLEWVAYISKGGGSTYYPDTVKGRFTISRDNAKNTLYLQMSSLKSEDTALYYCARGAMYGNDFFYPMDYWGQGTSVTVSS
VL: QIVLTQSPAIMSASLGEEITLTCSASSSVSYMHWYQQKSGTSPKLLIYTTSNLASGVPSRFSGSGSGTFYSLTISSVEAEDAADYYCHQWSSYPWTFGGGTKLEIKA
notes: Mouse monoclonal anti-TrkA antibody; also called parental murine antibody
In assay [4], B16 yielded a Kd of 0.018 µM, a koff of 0.00109 s⁻¹ and a kon of 60200 M⁻¹ s⁻¹.

These data come from US20170362327A1 (GLENMARK PHARMACEUTICALS S A, published 2017).
